Molecular target: T1, TLR9 (Mus musculus, UniProt Q9EQU3)
T1 construct: using the murine macrophage cell line RAW264.7; endogenous in cells; host or cells: RAW264.7
T1 sequence (Q9EQU3 26-1032): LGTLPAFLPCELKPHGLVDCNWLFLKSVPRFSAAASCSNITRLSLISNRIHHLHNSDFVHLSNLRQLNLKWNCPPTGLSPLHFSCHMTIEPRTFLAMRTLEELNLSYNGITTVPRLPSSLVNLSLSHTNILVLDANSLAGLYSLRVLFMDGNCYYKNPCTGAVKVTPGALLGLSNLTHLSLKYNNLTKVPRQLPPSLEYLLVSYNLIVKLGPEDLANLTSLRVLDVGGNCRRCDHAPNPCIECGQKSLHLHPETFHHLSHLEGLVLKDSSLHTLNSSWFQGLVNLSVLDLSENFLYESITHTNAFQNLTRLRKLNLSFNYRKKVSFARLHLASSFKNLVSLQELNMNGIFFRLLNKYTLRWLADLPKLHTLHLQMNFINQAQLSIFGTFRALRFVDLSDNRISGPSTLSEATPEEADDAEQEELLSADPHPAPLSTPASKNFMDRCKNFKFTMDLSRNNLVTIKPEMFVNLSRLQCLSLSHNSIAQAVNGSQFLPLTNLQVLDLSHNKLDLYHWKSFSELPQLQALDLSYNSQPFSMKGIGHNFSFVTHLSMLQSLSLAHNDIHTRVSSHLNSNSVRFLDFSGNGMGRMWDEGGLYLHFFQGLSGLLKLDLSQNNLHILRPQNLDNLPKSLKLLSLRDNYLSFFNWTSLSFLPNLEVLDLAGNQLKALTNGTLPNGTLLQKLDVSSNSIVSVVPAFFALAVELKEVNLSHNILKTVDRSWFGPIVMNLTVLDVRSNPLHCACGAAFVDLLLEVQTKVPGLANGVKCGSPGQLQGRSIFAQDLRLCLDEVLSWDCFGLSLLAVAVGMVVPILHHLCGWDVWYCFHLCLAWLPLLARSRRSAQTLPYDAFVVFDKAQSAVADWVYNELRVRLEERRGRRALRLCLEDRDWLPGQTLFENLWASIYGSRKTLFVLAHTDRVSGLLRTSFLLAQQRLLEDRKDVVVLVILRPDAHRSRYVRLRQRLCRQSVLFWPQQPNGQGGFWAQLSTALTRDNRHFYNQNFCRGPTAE
Assay: CpG-induced MIP-2 production in RAW264.7 cells, ELISA
Assay type: cell-based, murine
Conditions: peptide 5 or 20 μM 1 h before 1 μg/ml CpG, supernatant 24 h
Experimental: FIGS. 1A and B are bar charts showing the effect of peptides derived from A46 on CpG-induced MIP-2 production murine RAW264.7 cells. Cells were seeded in 96 well plates (1.5×10^5 cells/nil) at least 24 hours before treatment. A46 peptides were added to the cells at a concentration of 5 or 20 μM 1 hour before stimulating with 1 μg/ml CpG. Supernatants were collected 24 hours after stimulation and assayed for MIP2 by ELISA. No peptides were added into the control wells (black bars). (A) peptides A461-A467 (SEQ ID NO. 17 to 23). (B) peptides A468-A4614 (SEQ ID NO. 24 to 30) (excluding A4612 SEQ ID NO. 28). Data is representative of at least two experiments each performed in triplicate and is expressed as mean±s.d;
Cytokine and chemokine production from cells or mouse serum was measured by ELISA using Duoset kits from R&D systems, according to the manufacturer's instructions.
These peptides were initially screened for effects on TLR-induced gene induction in vitro using the murine macrophage cell line RAW264.7. Unmethylated CpG dinucleotides of bacterial DNA sequences are detected by TLR9, which leads to production of pro-inflammatory cytokines and chemokines, including TNFα via a MyD88-dependent pathway (Latz et al, 2004). […] The effect of the peptides on two TLR9-induced cytokines, namely TNFα and MIP-2, was measured by ELISA. […]

With KYSFKLILAEYRRRRRRRRR [Peptide A464] the “inhibition of CpG-induced MIP-2 secretion” value was “little or no effect”.
